Experimental data reported in the Immune Epitope Database (IEDB).
pIC50, pKd: −log10 of the molar value.

Tests used:
HLA-A*02:12 = test: IEDB peptide-MHC binding, purified MHC/competitive/fluorescence; filed as Kd, often an IC50 or EC50 that approximates it; ≥ and ≤ were set here for values at or beyond the usual limits of such assays; settings: source organism: Vibrio cholerae 2740-80
HLA-A*03:01 [1] = test: as above; settings: source organism: Vibrio cholerae 2740-80
HLA-B*46:01 = test: as above; settings: source organism: Vibrio cholerae 2740-80
HLA-A*68:02 = test: as above; settings: source organism: Vibrio cholerae 2740-80
HLA-B*51:01 = test: as above
HLA-B*27:03 = test: as above; settings: source organism: Vibrio cholerae 2740-80
HLA-A*02:19 = test: as above; settings: source organism: Vibrio cholerae 2740-80
HLA-A*26:01 = test: as above; settings: source organism: Vibrio cholerae 2740-80
HLA-B*18:01 = test: as above; settings: source organism: Vibrio cholerae 2740-80
HLA-B*39:01 = test: as above; settings: source organism: Vibrio cholerae 2740-80
HLA-B*58:01 [2] = test: IEDB peptide-MHC binding, purified MHC/competitive/radioactivity; filed as Kd, often an IC50 or EC50 that approximates it; ≥ and ≤ were set here for values at or beyond the usual limits of such assays
HLA-A*32:01 = test: as above
HLA-B*40:01 = test: IEDB peptide-MHC binding, purified MHC/competitive/fluorescence; filed as Kd, often an IC50 or EC50 that approximates it; ≥ and ≤ were set here for values at or beyond the usual limits of such assays
HLA-B*07:02 [3] = test: IEDB peptide-MHC binding, purified MHC/competitive/fluorescence; ≥ and ≤ were set here for values at or beyond the usual limits of such assays
HLA-A*02:01 [4] = test: IEDB peptide-MHC binding, purified MHC/competitive/radioactivity; ≥ and ≤ were set here for values at or beyond the usual limits of such assays
HLA-B*07:02 [5] = test: IEDB peptide-MHC binding, purified MHC/competitive/fluorescence; filed as Kd, often an IC50 or EC50 that approximates it; ≥ and ≤ were set here for values at or beyond the usual limits of such assays
HLA-B*57:01 = test: IEDB peptide-MHC binding, purified MHC/competitive/radioactivity; filed as Kd, often an IC50 or EC50 that approximates it; ≥ and ≤ were set here for values at or beyond the usual limits of such assays
HLA-A*03:01 [6] = test: IEDB peptide-MHC binding, purified MHC/competitive/fluorescence; ≥ and ≤ were set here for values at or beyond the usual limits of such assays; settings: source organism: Vaccinia virus
HLA-A*11:01 = test: as above; settings: source organism: Vaccinia virus
HLA-A*23:01 = test: IEDB peptide-MHC binding, purified MHC/direct/fluorescence; filed as Kd, often an IC50 or EC50 that approximates it; ≥ and ≤ were set here for values at or beyond the usual limits of such assays; settings: source organism: Vibrio vulnificus CMCP6
HLA-A*24:03 [7] = test: as above; settings: source organism: Vibrio vulnificus CMCP6
HLA-A*24:03 [8] = test: IEDB peptide-MHC binding, purified MHC/competitive/fluorescence; filed as Kd, often an IC50 or EC50 that approximates it; ≥ and ≤ were set here for values at or beyond the usual limits of such assays; settings: source organism: Escherichia coli
HLA-C*05:01 = test: IEDB peptide-MHC binding, purified MHC/direct/fluorescence; filed as Kd, often an IC50 or EC50 that approximates it; ≥ and ≤ were set here for values at or beyond the usual limits of such assays
HLA-B*58:01 [9] = test: IEDB peptide-MHC binding, purified MHC/competitive/fluorescence; filed as Kd, often an IC50 or EC50 that approximates it; ≥ and ≤ were set here for values at or beyond the usual limits of such assays; settings: source organism: Escherichia coli
HLA-A*02:01 [10] = test: as above; settings: source organism: Escherichia coli
[11] = source organism: Dengue virus 1 Brazil/97-11/1997
[12] = source organism: Dengue virus 2 Jamaica/1409/1983
[13] = source organism: Dengue virus 1 Singapore/S275/1990
[14] = source organism: Dengue virus 3 Martinique/1243/1999
[15] = source organism: Escherichia coli
[16] = source organism: Human papillomavirus 16

With KQLPPLAAW the pKd (HLA-A*02:12) was ≤ 4.70, the pKd (HLA-A*03:01 [1]) was ≤ 4.70 and the pKd (HLA-B*46:01) was ≤ 4.70. The pKd (HLA-A*68:02) was ≤ 4.70, the pKd (HLA-B*51:01; source organism: Vibrio cholerae 2740-80) was ≤ 4.70 and the pKd (HLA-B*27:03) was ≤ 4.70. The pKd (HLA-A*02:19) was ≤ 4.70, the pKd (HLA-A*26:01) was ≤ 4.70 and the pKd (HLA-B*18:01) was 5.20. For the same sequence, the pKd (HLA-B*39:01) was ≤ 4.70.
For KSWPLNEGI, the pKd (HLA-B*58:01 [2]; [11]) was 7.15 and the pKd (HLA-A*32:01; [11]) was 6.47.
With KTVWFVPSI the pKd (HLA-B*58:01 [2]; [12]) was 8.36 and the pKd (HLA-A*32:01; [12]) was 8.17.
In the case of LESAIGLPM, the pKd (HLA-B*40:01; source organism: Shigella flexneri 5 str. 8401) was 8.14.
In the case of LKNDLLENLQ, the pIC50 (HLA-B*07:02 [3]; source organism: Influenza A virus (A/Victoria/1968(H3N2))) was ≤ 3.31.
LLALLSCLTI gave a pIC50 (HLA-A*02:01 [4]; source organism: Hepacivirus hominis) of 6.41.
LPYPYSSSA showed a pKd (HLA-B*07:02 [5]; source organism: Shigella boydii CDC 3083-94) of 7.10.
LSAAIGKAW was tested, and the pKd (HLA-B*57:01; [13]) was 8.72 and the pKd (HLA-B*58:01 [2]; [13]) was 8.53.
LVRSETKQK showed a pIC50 (HLA-A*03:01 [6]) of 5.30, a pIC50 (HLA-B*07:02 [3]; source organism: Vaccinia virus) of 4.46 and a pIC50 (HLA-A*11:01) of 5.15.
For MEIKILHKQ, the pKd (HLA-B*40:01; source organism: Escherichia coli 536) was ≤ 4.70.
MENLMYALL was tested, and the pKd (HLA-B*40:01; source organism: Bacillus anthracis str. A0488) was 7.55.
Sequence MFVSNRWFL has a pKd (HLA-A*23:01) of 8.70 and a pKd (HLA-A*24:03 [7]) of 8.30.
NASDRMGMGV showed a pKd (HLA-B*57:01; [14]) of 6.14 and a pKd (HLA-B*58:01 [2]; [14]) of 6.68.
In the case of NLGNLNVSI, the pIC50 (HLA-A*02:01 [4]; source organism: Hepatitis B virus subtype ayw) was 7.12.
With NPIVPSFDM the pIC50 (HLA-B*07:02 [3]; source organism: Influenza A virus (A/Oklahoma/309/2006(H3N2))) was 5.91.
In the case of PSGSTSPRM, the pIC50 (HLA-B*07:02 [3]; source organism: Zaire ebolavirus) was ≤ 3.69.
QSSITEAELT showed a pKd (HLA-B*57:01; [12]) of 6.45 and a pKd (HLA-B*58:01 [2]; [12]) of 6.36.
QYVLMPGKV showed a pKd (HLA-A*24:03 [8]) of 5.59.
Work on RAMACSALI yielded a pKd (HLA-C*05:01; [15]) of 6.46, a pKd (HLA-B*58:01 [9]) of 7.89 and a pKd (HLA-B*51:01; [15]) of 5.53. For the same sequence, the pKd (HLA-A*02:01 [10]) was 7.58.
Sequence RAQDPPPEL has a pKd (HLA-C*05:01; source organism: Homo sapiens) of 6.18.
SLYNAIATL gave a pIC50 (HLA-A*02:01 [4]; source organism: Human immunodeficiency virus 1) of 7.44.
TLIDVCPI gave a pIC50 (HLA-A*02:01 [4]; [16]) of 7.48.
TVILGVLLL showed a pIC50 (HLA-A*02:01 [4]; source organism: Homo sapiens) of 6.07.
VLLLWITAA showed a pIC50 (HLA-A*02:01 [4]; [16]) of 7.96.
Work on VLPSPACQLV yielded a pIC50 (HLA-A*02:01 [4]; source organism: Homo sapiens) of 6.30.
For VPRYAFAM, the pKd (HLA-B*07:02 [5]; source organism: Influenza A virus) was ≥ 9.00.
VSSVNMISRM showed a pKd (HLA-B*57:01; [12]) of 6.20 and a pKd (HLA-B*58:01 [2]; [12]) of 6.16.
